Measured values from the Immune Epitope Database (IEDB).

Experiments:
HLA-B*15:01 [1] = assay: IEDB peptide-MHC binding, purified MHC/competitive/fluorescence; filed as Kd, often an IC50 or EC50 that approximates it; ≥ and ≤ were set here for values at or beyond the usual limits of such assays
HLA-B*35:01 = assay: as above
HLA-B*51:01 = assay: as above
HLA-B*07:02 [2] = assay: as above
HLA-B*07:02 [3] = assay: IEDB peptide-MHC binding, purified MHC/competitive/fluorescence; ≥ and ≤ were set here for values at or beyond the usual limits of such assays
HLA-B*08:01 [4] = assay: as above
HLA-A*24:02 = assay: as above
HLA-A*02:01 [5] = assay: as above
HLA-B*15:01 [6] = assay: as above
HLA-B*27:03 = assay: IEDB peptide-MHC binding, purified MHC/competitive/fluorescence; filed as Kd, often an IC50 or EC50 that approximates it; ≥ and ≤ were set here for values at or beyond the usual limits of such assays; conditions: source organism: Orthohantavirus tulaense
HLA-B*39:01 = assay: as above; conditions: source organism: Orthohantavirus tulaense
HLA-A*26:01 = assay: as above; conditions: source organism: Orthohantavirus tulaense
HLA-B*15:42 = assay: as above; conditions: source organism: Orthohantavirus tulaense
HLA-B*18:01 = assay: as above; conditions: source organism: Orthohantavirus tulaense
HLA-B*83:01 = assay: as above; conditions: source organism: Orthohantavirus tulaense
HLA-A*69:01 [7] = assay: as above; conditions: source organism: Orthohantavirus tulaense
HLA-B*57:01 [8] = assay: as above; conditions: source organism: Orthohantavirus tulaense
HLA-B*45:06 = assay: as above; conditions: source organism: Orthohantavirus tulaense
HLA-A*31:01 [9] = assay: as above; conditions: source organism: Orthohantavirus tulaense
HLA-A*03:01 [10] = assay: as above; conditions: source organism: Orthohantavirus tulaense
HLA-B*46:01 [11] = assay: as above; conditions: source organism: Orthohantavirus tulaense
HLA-A*02:12 = assay: IEDB peptide-MHC binding, purified MHC/direct/fluorescence; filed as Kd, often an IC50 or EC50 that approximates it; ≥ and ≤ were set here for values at or beyond the usual limits of such assays; conditions: source organism: Orthohantavirus tulaense
HLA-A*24:03 = assay: as above; conditions: source organism: Orthohantavirus tulaense
HLA-A*02:03 = assay: as above; conditions: source organism: Orthohantavirus tulaense
HLA-A*02:16 = assay: as above; conditions: source organism: Orthohantavirus tulaense
HLA-A*02:11 = assay: as above; conditions: source organism: Orthohantavirus tulaense
HLA-A*02:19 = assay: as above; conditions: source organism: Orthohantavirus tulaense
HLA-A*68:02 = assay: as above; conditions: source organism: Orthohantavirus tulaense
HLA-B*07:02 [12] = assay: as above; conditions: source organism: Mycobacterium tuberculosis variant bovis
HLA-B*08:01 [13] = assay: as above; conditions: source organism: Mammarenavirus lassaense
HLA-B*15:01 [14] = assay: as above; conditions: source organism: Mammarenavirus lassaense
HLA-B*58:01 = assay: as above; conditions: source organism: Mammarenavirus lassaense
HLA-B*44:02 = assay: as above; conditions: source organism: Mammarenavirus lassaense
HLA-A*11:01 = assay: as above; conditions: source organism: Mammarenavirus lassaense
HLA-B*48:01 = assay: as above; conditions: source organism: Mammarenavirus lassaense
HLA-A*01:01 = assay: as above; conditions: source organism: Mammarenavirus lassaense
HLA-A*69:01 [15] = assay: as above; conditions: source organism: Mammarenavirus lassaense
HLA-B*57:01 [16] = assay: as above; conditions: source organism: Mammarenavirus lassaense
HLA-A*31:01 [17] = assay: as above; conditions: source organism: Mammarenavirus lassaense
HLA-B*40:01 = assay: as above; conditions: source organism: Mammarenavirus lassaense
HLA-A*02:01 [18] = assay: as above; conditions: source organism: Mammarenavirus lassaense
HLA-A*03:01 [19] = assay: as above; conditions: source organism: Mammarenavirus lassaense
HLA-B*27:05 = assay: as above; conditions: source organism: Mammarenavirus lassaense
HLA-B*46:01 [20] = assay: as above; conditions: source organism: Mammarenavirus lassaense
HLA-B*53:01 = assay: IEDB peptide-MHC binding, purified MHC/competitive/radioactivity; filed as Kd, often an IC50 or EC50 that approximates it; ≥ and ≤ were set here for values at or beyond the usual limits of such assays; conditions: source organism: Lassa virus GA391
HLA-B*54:01 = assay: as above; conditions: source organism: Lassa virus GA391
HLA-B*07:02 [21] = assay: as above; conditions: source organism: Lassa virus GA391
[22] = source organism: Escherichia coli O157:H7 str. Sakai
[23] = source organism: Vaccinia virus Copenhagen
[24] = source organism: Shigella flexneri 5 str. 8401
[25] = source organism: Vaccinia virus
[26] = source organism: Orthohantavirus tulaense
[27] = source organism: Zaire ebolavirus
[28] = source organism: Bacillus cereus G9241
[29] = source organism: Mycobacterium tuberculosis H37Rv
[30] = source organism: Mammarenavirus lassaense

Which Kd (HLA-B*15:01 [1]; [22]) does the source give for TPTHLSLAI here?
Its Kd is ≥ 20 µM.

And the Kd (HLA-B*35:01; [22])?
Its Kd is 0.0168 µM.

And the Kd (HLA-B*51:01; [22])?
The Kd was 2.92 µM.

With APGWLIWTY as the sequence, how does the Kd (HLA-B*07:02 [2]; source organism: human gammaherpesvirus 4) read?
Its Kd is ≥ 20 µM.

INKLNGAMV was tested. Which IC50 (HLA-B*07:02 [3]; [23]) did it give?
The IC50 was ≥ 74.2 µM.

TPAQLSMLL was tested. Which Kd (HLA-B*07:02 [2]; [24]) did it give?
The Kd was 0.215 µM.

And the Kd (HLA-B*51:01; [24])?
The Kd was ≥ 20 µM.

Which Kd (HLA-B*07:02 [2]; source organism: Influenza A virus) does the source give for YVKQNTLKL here?
The Kd was 0.0718 µM.

With WISHRPVVL as the sequence, how does the IC50 (HLA-B*08:01 [4]; source organism: Variola virus) read?
Its IC50 is 25.7 µM.

What about the IC50 (HLA-A*24:02; source organism: Variola virus) of the same sequence?
The IC50 was 21.5 µM.

What about the IC50 (HLA-B*07:02 [3]; source organism: Variola virus) of the same sequence?
Its IC50 is 7.13 µM.

What about the IC50 (HLA-A*02:01 [5]; source organism: Variola virus) of the same sequence?
The IC50 was 1.11 µM.

GMLRFANPL was tested. Which IC50 (HLA-B*08:01 [4]; [25]) did it give?
The IC50 was 11.8 µM.

And the IC50 (HLA-A*24:02; [25])?
Its IC50 is 8.07 µM.

What about the IC50 (HLA-B*15:01 [6]; [25]) of the same sequence?
Its IC50 is 1.69 µM.

And the IC50 (HLA-B*07:02 [3]; [25])?
The IC50 was 5.38 µM.

And the IC50 (HLA-A*02:01 [5]; [25])?
Its IC50 is 0.651 µM.

How did the Kd (HLA-B*27:03) turn out when ILMARYMSK was run?
The Kd was ≥ 20 µM.

And the Kd (HLA-B*39:01)?
Its Kd is ≥ 20 µM.

And the Kd (HLA-B*15:01 [1]; [26])?
The Kd was ≥ 20 µM.

And the Kd (HLA-A*26:01)?
The Kd was ≥ 20 µM.

What about the Kd (HLA-B*15:42) of the same sequence?
Its Kd is ≥ 5 µM.

What about the Kd (HLA-B*18:01) of the same sequence?
Its Kd is ≥ 20 µM.

And the Kd (HLA-B*83:01)?
The Kd was ≥ 5 µM.

What about the Kd (HLA-A*69:01 [7]) of the same sequence?
The Kd was ≥ 20 µM.

What about the Kd (HLA-B*57:01 [8]) of the same sequence?
The Kd was ≥ 20 µM.

And the Kd (HLA-B*45:06)?
The Kd was ≥ 5 µM.

And the Kd (HLA-B*51:01; [26])?
Its Kd is ≥ 20 µM.

And the Kd (HLA-A*31:01 [9])?
The Kd was 0.0152 µM.

What about the Kd (HLA-A*03:01 [10]) of the same sequence?
The Kd was 0.0628 µM.

And the Kd (HLA-B*46:01 [11])?
The Kd was ≥ 20 µM.

And the Kd (HLA-A*02:12)?
Its Kd is ≥ 20 µM.

And the Kd (HLA-A*24:03)?
Its Kd is ≥ 20 µM.

What about the Kd (HLA-A*02:03) of the same sequence?
The Kd was ≥ 20 µM.

What about the Kd (HLA-A*02:16) of the same sequence?
The Kd was ≥ 20 µM.

And the Kd (HLA-A*02:11)?
Its Kd is ≥ 20 µM.

What about the Kd (HLA-A*02:19) of the same sequence?
The Kd was ≥ 20 µM.

And the Kd (HLA-A*68:02)?
The Kd was ≥ 20 µM.

Which results are given for QLREAATEA?
IC50 (HLA-B*08:01 [4]; [27]): ≥ 192 µM; IC50 (HLA-B*15:01 [6]; [27]): 62.1 µM; IC50 (HLA-B*07:02 [3]; [27]): 28.2 µM; IC50 (HLA-A*02:01 [5]; [27]): 20 µM

How did the IC50 (HLA-B*08:01 [4]; [27]) turn out when TNQLRSVGL was run?
Its IC50 is 32.9 µM.

What about the IC50 (HLA-B*07:02 [3]; [27]) of the same sequence?
The IC50 was 64.3 µM.

For YLFGGFSTL, which IC50 (HLA-B*08:01 [4]; source organism: Variola virus) is on record?
Its IC50 is ≥ 273 µM.

What about the IC50 (HLA-B*15:01 [6]; source organism: Variola virus) of the same sequence?
Its IC50 is 3.33 µM.

What about the IC50 (HLA-B*07:02 [3]; source organism: Variola virus) of the same sequence?
Its IC50 is 7.61 µM.

What does the source list for LFAGSIAAY?
Kd (HLA-B*15:01 [1]; [28]): 0.19 µM; Kd (HLA-B*35:01; [28]): 0.0522 µM

Which Kd (HLA-B*07:02 [2]; source organism: Yersinia pestis CO92) does the source give for LPFSASIVF here?
The Kd was 0.0888 µM.

With LPAGSPVAV as the sequence, how does the Kd (HLA-B*35:01; [29]) read?
Its Kd is 0.0027 µM.

What about the Kd (HLA-B*51:01; [29]) of the same sequence?
Its Kd is 0.453 µM.

And the Kd (HLA-B*07:02 [12])?
The Kd was 0.24 µM.

How did the Kd (HLA-B*35:01; [30]) turn out when VPHVIEEVM was run?
Its Kd is 0.0002 µM.

What about the Kd (HLA-B*51:01; [30]) of the same sequence?
Its Kd is ≥ 20 µM.

What about the Kd (HLA-B*08:01 [13]) of the same sequence?
The Kd was 3.8 µM.

What about the Kd (HLA-B*15:01 [14]) of the same sequence?
The Kd was ≥ 20 µM.

What about the Kd (HLA-B*58:01) of the same sequence?
Its Kd is ≥ 20 µM.

And the Kd (HLA-B*44:02)?
Its Kd is ≥ 20 µM.

And the Kd (HLA-A*11:01)?
Its Kd is ≥ 20 µM.

What about the Kd (HLA-B*48:01) of the same sequence?
Its Kd is ≥ 20 µM.

And the Kd (HLA-A*01:01)?
The Kd was ≥ 20 µM.

And the Kd (HLA-A*69:01 [15])?
Its Kd is ≥ 20 µM.

And the Kd (HLA-B*57:01 [16])?
Its Kd is ≥ 20 µM.

And the Kd (HLA-A*31:01 [17])?
The Kd was ≥ 20 µM.

And the Kd (HLA-B*40:01)?
The Kd was ≥ 20 µM.

And the Kd (HLA-A*02:01 [18])?
The Kd was ≥ 20 µM.

What about the Kd (HLA-A*03:01 [19]) of the same sequence?
Its Kd is ≥ 20 µM.

What about the Kd (HLA-B*27:05) of the same sequence?
The Kd was ≥ 20 µM.

And the Kd (HLA-B*46:01 [20])?
The Kd was ≥ 20 µM.

And the Kd (HLA-B*53:01)?
Its Kd is 1.09 µM.

What about the Kd (HLA-B*54:01) of the same sequence?
Its Kd is 12.5 µM.

What about the Kd (HLA-B*07:02 [21]) of the same sequence?
The Kd was 0.324 µM.

ILRSIEGEL was tested. Which IC50 (HLA-B*08:01 [4]; [23]) did it give?
Its IC50 is ≥ 524 µM.

What about the IC50 (HLA-B*15:01 [6]; [23]) of the same sequence?
The IC50 was 39.8 µM.

And the IC50 (HLA-B*07:02 [3]; [23])?
The IC50 was 33.9 µM.
